# According to the supplement of paper PMC10724198:
# ± gives the standard deviation of the averaged measurements.
# Tested on: Saccharomyces cerevisiae
# Experiment: protein stability index of tFT-peptide fusion (C-terminal peptide) (PSI (0-1 scale)); higher = more stable (slower turnover)
# Conditions: genetic background: wild type; temperature: 30 C
# 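Note: PSI is a weighted mean of sequencing reads over stability bins, variants kept only with over 10 reads, mCherry proximal and sfGFP distal, peptide attached via GGGS linker.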
sequence,measurement,value
WGGCNTALLTIL,protein stability index,0.581 ± 0.018
LHGLSGRLLFDV,protein stability index,0.574 ± 0.2
PHPSPRGTPCPT,protein stability index,0.646 ± 0.021
PVQNVGAEVRPA,protein stability index,0.683 ± 0.0094
APLPPPRPPPSP,protein stability index,0.657 ± 0.081
PPPLPPLPPPTL,protein stability index,0.698 ± 0.045
PIHCTVMGATTC,protein stability index,0.657 ± 0.073
FYMCYFSCSRSL,protein stability index,0.667 ± 0.0086
LSLHCIYQQIFR,protein stability index,0.822 ± 0.12
IVEERLFWKMWE,protein stability index,0.659 ± 0.015
PTRPSRPPRPPP,protein stability index,0.598 ± 0.026
GVGSWSCGGSVH,protein stability index,0.6634 ± 0.0034
ACGDRGGRCSEG,protein stability index,0.678 ± 0.089
LVSQLLALCLSV,protein stability index,0.5358 ± 0.00089
TRLVYFYLGRDI,protein stability index,0.656 ± 0.054
GGGARREGAGRG,protein stability index,0.6752 ± 0.0064
MYTNYLYDVAVE,protein stability index,0.597 ± 0.044
LALSRVALFSHS,protein stability index,0.679 ± 0.042
IEFPQGRKTTQS,protein stability index,0.629 ± 0.0082
LSPSPTSHSRLL,protein stability index,0.589 ± 0.024
LVIKNVWHESTY,protein stability index,0.709 ± 0.054
PATRIDAFPPVP,protein stability index,0.685 ± 0.022
RKNHKKNHKTRI,protein stability index,0.65 ± 0.087
VAESPGWAAGVD,protein stability index,0.689 ± 0.015
SLSVPYPPGLLP,protein stability index,0.7119 ± 0.0022
SLIRSHKLKLFP,protein stability index,0.732 ± 0.045
SCSICLWVGHGC,protein stability index,0.656 ± 0.028
IGFPFRIYRFAF,protein stability index,0.563 ± 0.04
AVWLGGGGRFVG,protein stability index,0.78 ± 0.034
SRQPPPRVFCVV,protein stability index,0.571 ± 0.035
FSPVSSFTLTLS,protein stability index,0.701 ± 0.11
CLRGLLVMLYQR,protein stability index,0.54 ± 0.01
SSSHRPTAPSSR,protein stability index,0.669 ± 0.05
PLPPIPPSTPST,protein stability index,0.726 ± 0.017
SNFKKRKERFGR,protein stability index,0.7048 ± 0.0063
PKTKKEKQKKKV,protein stability index,0.704 ± 0.034
EWCQVGGRGFLG,protein stability index,0.74 ± 0.021
DKVLQSLALKCK,protein stability index,0.508 ± 0.0074
PPVFYAPLVTER,protein stability index,0.7 ± 0.035
LFLAPFRLVLGV,protein stability index,0.518 ± 0.01
LEQNCYYGEFSS,protein stability index,0.665 ± 0.035
DVGWRVFVFGGL,protein stability index,0.704 ± 0.038
CWPLITTNCTVP,protein stability index,0.7081 ± 0.0054
FLPPPPRRPFTR,protein stability index,0.6282 ± 0.0057
PWANRVCFLHMK,protein stability index,0.678 ± 0.037
GRAPPGHSLPVR,protein stability index,0.7187 ± 0.0071
PPRLPLSHPPEP,protein stability index,0.634 ± 0.022
PPLSSPPSLSPP,protein stability index,0.703 ± 0.049
RRMAGEPKCGRS,protein stability index,0.699 ± 0.015
KEFFGGSTDFRV,protein stability index,0.729 ± 0.18
HSQAPPPHPHAP,protein stability index,0.719 ± 0.024
PRKHSSRAINPI,protein stability index,0.721 ± 0.06
SYGADSVSYLKT,protein stability index,0.651 ± 0.033
RWLGGTGGWKSR,protein stability index,0.673 ± 0.041
RCRLGDFLLSFI,protein stability index,0.63 ± 0.034
PPIFPSPPPPAD,protein stability index,0.61 ± 0.011
GARGCSATGPPG,protein stability index,0.61 ± 0.02
VFLGCCWVHFFY,protein stability index,0.534 ± 0.0062
GGGAGRGGVVVR,protein stability index,0.685 ± 0.023
PFVIFHSCFSLV,protein stability index,0.543 ± 0.011
PPPLSCPSRPSL,protein stability index,0.526 ± 0.12
LLRVPPGPIFPS,protein stability index,0.661 ± 0.064
VGGCRVLCVGLG,protein stability index,0.651 ± 0.06
ARLGNPHFKIFS,protein stability index,0.684 ± 0.089
RLGGTMVVGTGG,protein stability index,0.661 ± 0.041
NVNAVAVILGAC,protein stability index,0.562 ± 0.0061
LLSLSCLPLHFR,protein stability index,0.574 ± 0.088
GDSSSCSSYVYL,protein stability index,0.651 ± 0.026
YLSGHLGCRVRV,protein stability index,0.651 ± 0.067
LASSLTALRYPP,protein stability index,0.742 ± 0.064
LKSGAWFFRIGY,protein stability index,0.66 ± 0.018
HFKHLALVQQFP,protein stability index,0.69 ± 0.048
FAIFSGMSFGVY,protein stability index,0.693 ± 0.05
NKIVKYSKIRYK,protein stability index,0.678 ± 0.018
KRLKKKRNRAKA,protein stability index,0.683 ± 0.031
APAVPITPPPFP,protein stability index,0.696 ± 0.05
GCRGRCVMPVCG,protein stability index,0.634 ± 0.051
EWVSGWIVRWWR,protein stability index,0.679 ± 0.076
ALTFYYRGWSGL,protein stability index,0.619 ± 0.019
GRGGGSRIVGGV,protein stability index,0.704 ± 0.023
DSLTKYSAKEYR,protein stability index,0.5777 ± 0.0052
SDLPPCPSRPSP,protein stability index,0.661 ± 0.11
EPWTEQPKLDSR,protein stability index,0.936 ± 0.091
HYRSNFGRDSNL,protein stability index,0.762 ± 0.082
AKRRTNRLHCNA,protein stability index,0.6427 ± 0.0029
VFVRSTSFLFFG,protein stability index,0.678 ± 0.0097
DFSLRCIAIPRV,protein stability index,0.651 ± 0.046
FLCSRYRGYMPT,protein stability index,0.632 ± 0.086
NNRVVRGRKWGG,protein stability index,0.682 ± 0.015
QMKDGKTQKWQE,protein stability index,0.569 ± 0.048
QPHPPRAVLTGP,protein stability index,0.6975 ± 0.005
RPEAVARIFDDE,protein stability index,0.724 ± 0.013
HPSSLRLSSSAF,protein stability index,0.697 ± 0.014
PPSPPRPPTSFL,protein stability index,0.608 ± 0.057
SLPLPPPVRPLL,protein stability index,0.689 ± 0.047
PIATTSVDAGRS,protein stability index,0.634 ± 0.019
GPFLFPGASCGL,protein stability index,0.717 ± 0.011
PPPLTPPTCLPP,protein stability index,0.644 ± 0.013
EGGERERGNRER,protein stability index,0.7176 ± 0.0069
PVVDVRFSFRCL,protein stability index,0.644 ± 0.038
FVVVVVGGGWGG,protein stability index,0.516 ± 0.0068
